Assay results from paper PMC2581436, “Role of Amphipathic Helix of a Herpesviral Protein in Membrane Deformation and T Cell Receptor Downregulation” (PLoS Pathogens, 2008).

Biological target: the molecule itself
Assay: native gel or EMSA; Blue Native PAGE (10% native gel) of whole-cell lysates of 293T cells solubilized with 2.5% Triton X-100; GFP fusions detected by anti-GFP immunoblot; markers aldolase ~160 kDa and BSA 66/132 kDa

B1: GFP-Tip^211-256 (domain or fragment)
chain: ANERNIVKDLKRLENKINVIICLVVVILAVLLLVTVLSILHIGMKS
notes: source: 293T, transiently expressing, detergent-solubilized lysate
stoichiometry N: ~4
